Measured values reported in the DeepSol protein solubility set.

Assay: soluble on expression in E. coli; label from the status in PepcDB or PDB records

Sequence	soluble on expression in E. coli
MKEAGILFEELVSIMEKLRSPEGCEWDRKQTHESLKPYLIEECYELIEAIDEKNDDMMKEELGDVLLQVVFHAQIARERGAFTIEDVIRTLNEKLIRRHPHVFGDSPGYSYKQWEDIKAQEKGKKKSSRIGEINPLVPALSMARRIQENASQVGFDWKDPEGVYEKIEEELKELKEAKDPRELEEEFGDLLFSIVNLSRFLNVDPESALRKATRKFVERFKKMEELIEKDGLVLEELPIEKLDEYWEKAKGGDET	soluble
MGSDKIHHHHHHMISVGKGKIMITPDHNIIKPIAIVLPQFHPIRENNLWWGEGFTEWTNVVKGRPRFRGHYQPHLPKDLGYYDLRLPETRKAQAALATKYGIYGFCYYHYWFNGRRILESPVDAMLESGEPDFPFMLCWANENWTRNWDGSYNKVLLEQKYSKEDFVNHARHLIRYFKDDRYIKIDGRPVFAIYKDDIGEDIEKYLLLFRNELLKNSINVFLCRFERNIGTSRDLNRAFQVFDAGIEFQPLARQFSYLINYNNRLSRRIYKTLKKHFCFCKNIDDVYVYSHLVDNDLKYDFQQGWPIFPGVCPGWDNSARRRDTTAIIFDKSTPEIFKLWVREKIRITDWNLLPERFLFVNAWNEWAEGNHLEPCEKWGTQYLAALQAGINEM	not soluble
MTVERLENGVIVQRNTNEIEISITLDTVHGKLEGSTGVNFFDHLLNTFCHYSGLGLRVSTCESKDGILHHLIEDFGISLGLAFRELFDYTKVRRFGEATVPMNEALVGCYVDLSGRPFFQKNFEFSVEKIEDMPVEGFEEFMCGFVNHARITVHFFKFFGKNDHHISESAMKSFGLAIAKALESSEKKTTKGVID	soluble
MGSDKIHHHHHHMAYRKQLTRLKAPYLKRILLDPGRVEDWEKYPWNLPLFRGREFELEFTAPITIIVGENGTGKSTLLEAIGALAGYDEAGGGKGYMPVDHSRAIDKSGAALADNFRCHWLPKVTAGWFFRAESFYSVARYLDEAARESGATPPDFLSWSHGEGFIRFFEERCRRQGIYILDEPESALSPSRQIELLKMLRRMDQSGTAQVIMATHSPLLMACPGARLFRISRFGLEPADFRDTDHFRMLRDFSNDPDGFLAEALYEDEA	not soluble
MSLSNDISILFVEDDKEVRAQISDFLTSNMFKDVYVANNGKDGLLKYNIHKPDIVLSDLNMPIMDGLEMSRAIKALDENTPILLITSNFEKNVTEAAVDIGIEGCLFKPLSLNRVEKILTKYIEKIMFQREFKNKQKLLEQYKSIIDISSSVTKTDINGIITYVNNPFCDMSGYSKDELLGKNHTIISHPDNSKEFYEEIYSTLRDKKIWRGHIKNRRKNGDSYYESSVIAPILDENDEIVECISLKQDITELYAEGHHHHHH	soluble
MSLSKLGIIGLGKVGTQVLTDVQQLNLFSEIILIDDRADVASGEALDHIHSQGLINTAHIKIRSGVYQDLTDADFIVIAASEATDKNNGDRTLLAQGNHDIIKGIMSQIAEVTQEAVVILISNPVDSMVYFANQIDYPAHKIIGTGTALETSRFKTIIADHYQIDPNNVEAFVIGEHGQHAIPVWSKVHIHGMELSEFEALSDRPAIDKSHISSIINEVSMDVFYQKGWTNAAISKVTSFLIQSIALDQRTITPLTSLSSEYGLEDGAFSLPTLIDKKGIVQRFAITLDKEEERELKEAYEYIRQTIHTAQEGHHHHHH	soluble
SNAMLHYVHVGNKKSPNTLLFVHGSGCNLKIFGELEKYLEDYNCILLDLKGHGESKGQCPSTVYGYIDNVANFITNSEVTKHQKNITLIGYSMGGAIVLGVALKKLPNVRKVVSLSGGARFDKLDKDFMEKIYHNQLDNNYLLECIGGIDNPLSEKYFETLEKDPDIMINDLIACKLIDLVDNLKNIDIPVKAIVAKDELLTLVEYSEIIKKEVENSELKIFETGKHFLLVVNAKGVAEEIKNFI	soluble
MGSDKIHHHHHHMKLILSVESVRFPLTGIGRYTYELASRLQHAEQISDLRLFAGSRFLPELLKPSDQSDAVHGLKRFVQKNALAVEAYRRLMPLLRKRALRGHEDFIYHSTNFYLPPFAGPRVATFHDLSPFTWAHCHTPQIARYLQKELKLTLERADALITVSHHTRKELADYFGWPLERIHAVPLASSPQFHPRTPQALRETLARHGLELGGYSLFVGTIEPRKNIETLLNAYGRLPLALRQRWPLILSGYHGWRSEAIHSRIAQAQQEGWARYLGFVASEDLPLLFAGARLFTFPSHYEGFGLPVLEAMSSGVPVVCSNSSSLPEVAGSAALMCAPDDVEGLTGLLHQGLEDEAWRSAAVQRGLLHAGGFSWERCAQGTVEVYKSVKER	not soluble
SAGPQQQPPYLHLAELTASQFLEIWKHFDADGNGYIEGKELENFFQELEKARKGSGMMSKSDNFGEKMKEFMQKYDKNSDGKIEMAELAQILPTEENFLLCFRQHVGSSTEFMEAWRKYDTDRSGYIEANELKGFLSDLLKKANRPYDEPKLQEYTQTILRMFDLNGDGKLGLSEMSRLLPVQENFLLKFQGMKLTSEEFNAIFTFYDKDRSGYIDEHELDALLKDLYEKNKKEMNIQQLTNYRKSVMSLAEAGKLYRKDLEIVLCSEPPM	soluble
MQFFTSDTHFFHKDLLGDSDFAPRPFASVDEMNQTIIDNWNARVAETDTVYHLGDIALYFTKPAIKSDEAVFNVLSQLNGHLELIKGNHDSRALFKYLAAHNFSDHGQPKFAFHDVGALIKYDHRQYYLTHYPMMLGIVNQIINLHGHIHHYAVPVKENINVGVDTPEQRYLTTSVPFGTPFSPTEIEQMVTGKAQEFREKQLEHHHHHH	not soluble
MQQANLGDGVATARLLSRSDWGARLPKSVEHFQGPAPYVIIHHSYMPAVCYSTPDCMKSMRDMQDFHQLERGWNDIGYSFGIGGDGMIYTGRGFNVIGAHAPKYNDKSVGIVLIGDWRTELPPKQMLDAAKNLIAFGVFKGYIDPAYKLLGHRQVRDTECPGGRLFAEISSWPHFTHINDTEGVSSTTAPVVPHVHPQAAAPQKPHQSPPAAPKV	soluble
MSLSEASFLYLNDIHADPLYSPIIPSKHDCRGDHKKTIDPHKYGQYECDSPMELFESLVSNAKQTNEKPAFILLGGDLIAHGLNTDSKMLKQSFKNVTAPLEAAFPNTSIYITLGNNDFASDYGSFDTDADNFKTAYKVFGKWMNDEQSKTFLKGGYYYADFPEVNLRFLFLNSVMYAAKRDQTQHAEDPYDQFAWIESSYDDAVQKGFKVSVALHIPPGVYYYKNKLGWNEDYITKFSKIMKKCDFSFILSGHSHTDMFLPLYSPTADKDSVLYSLSAPSVSPVNYNNPGYRVFELSNGIVKDYTQYYADLLMNPSVLKWQVEYKFSDAYSASNVTRETINNAAEWVRTTGEGQWRYRERIYTRADEHNAFYYCALKALLPDDIVDCENKLNIDKLSAQPYYKEGHHHHHH	soluble
MGSDKIHHHHHHMANGLQRLIRSLKLVARYGLIVMNDGLICLPIKQRQVVFESFNGKDVNDNPAAIYRELVATAPEYRTTAYFSVKPREFAALHKKYPQIQLVKRFTPRWVWLMARAEFWVLNSRLPNWWHQNRRTTVIQTWHGTPLKKLGADIEHVAIPGTTTAAYHQEFKTAASRWQYLIAPNQYSQTIFKSAFGFHHQFLSVGYPRNDRLYTTLPAEITDLKQQLLGSTKGPVVTYAPTWRDDMAVRPGVYQFDLPFDLAEFFQHVPANTQLIIRPHYLVKDAIDIHGFEERVHVLAETDITDLYLISDLLITDYSSVMFDFANLQRPQLFFAYDLAHYRDQLRGFYFDYEQEIPGPLVTTASAFYAQLDRWRQDGAFHDYQARQAAFYEKFCSWENGTASRQVVQVMLHGKDEIK	not soluble
MKFKELSPSTYAEEFIRSKILVEEDGTAIKSQRELSADLGVSRNAIKYALKRLQYDGDIRIKERQGIEINKKRDINLLSMEPMSKELKQAEMHIKHISSEIIKTPDSLVDFFGNATELAEIKRIRLDDKDVVSFEISYLDNRKFEDIASVNFNECSLYQILENRYGKLPIYGYENITCVLANESLATKLNVKINTPLYQVDSYNYSDDDKAVEHTAQFLPANKIKYHFKAKNIFDYQEDDDDDII	not soluble
MILRYATNLKLAKELYQASKPKLQEDKGMIELFEHTFGLQKELVKYVGIAEATTAALYSASFINKNISRLASLSTIGILSVAAYKHFEAGQGKKGAQHALDLLGLATLSLLDTFSCNKKLEHHHHHH	not soluble
MGSDKIHHHHHHMEDFWRIRATDTAWKGVLHLASPRRYSRGEVIIRAGEMVDSLFYLESGEVRMIRTSMEGSEKILMYIEEGTLFGETPFFTGQPILSTFVCSRPAVIWRFSRHSVYADLLPNHPEIVSSLLHTFAAKVSTLSNQSASLGLQNVAERLCTFLYVTSGESISGAHGAELKLSMKMRDIANLLGVHRTTLYKAIRDLEKEGVLENFTRDSVRIADVTRFLEMVHK	not soluble
MDTTIGVIGNKVVHVIKENDSVKTAAEEMKKHNLGALVVIDDNDKIVGIITERDIVKVVAEGKLDAKVKDYMTRNVIGVTEDTPITDALEIMLDHGFRHLPIIGKDGKVIGIVSIRDLSKAILDPHFFQFKKEAADVKGSGYVCPVCGMEIDEYGYCGCGAGSG	soluble
MGSDKIHHHHHHASTKVAKSKAKGKVIVYYVYGKRGHTGKYLWSKKTLTGKIGTTYHTKALDLLNDSGYMALASHSKNTSGKFTRKTTKVYYRYYDVIERDYEFKHEADLYMELTGDHRIGLFDRNLQDGVEVVVERTNFSKPYYDVSYSNRVDTGHGSGLKEFHYRFGSTHRFKDNRDGNIYTMALTNSGGITFHAVATKHSTMNELVQVSAHGKLLTAKIRK	not soluble
MSNTDNSDKNTKPTGYRPPQTDFNTEFGNNLDYPRLGSVSFRRGTLTDNQESLWDANWPILGKDLTDAEDQRIDVAEWFGRCGHKTILEIGSGTGTSTAAMAPLEADTNIIAVELYKPGLAKLLGAVVRGDISNVRMIRGDGVEVLTRMLPEESLDGVRIYFPDPWPKARHHKRRIIQSGVLNLIASRLKPGGVLHVATDHADYAEWITELVNVEPQLEFMGWPWDECPQLTDRQVITKFEGKGLDKDHTITEFLWRRK	not soluble
MTALPLSAVTVVSVCYNSDRLIRDLVTAIPDETPIILVDNGHTNTFADLPPHRNVIIVKLDHNLGFGRGCNAGADVAQTPWILFLNPDARLNPGAIEGLLQAAAQYPSAIAFNPRIYNEDGSPYFKRRSWLLPRQHYMKKGWPSADAVVPVLSGAALFVSKKSFDYIGGFDPSIFMYHEDDDLSLRLSALGELRFVRNSTVVHFAGYSSGRSPEIARFKAYHMAQSKIYAGQKHHRPFAKTSTLLQGCLLLLSPHVFFSARRRAKALGFLHGALAKIWSELLNAASTSSQKKT	soluble
GPGSMSTQLISGGEDGSHSQLMDLVLTNCSRPQSRASDNKQSTDGVVRLTSYVDLPNRDTLLPPIAEPKGGVPETSETLFPRRLGFDMIGVSSVSEEMLRDLYEVFDVHQSGGVERGVLREMMRSGFSHFGAPCSDRDLDRFFENVTPFRVRRRRTPKEGEVDVVPFNEFCVAFLSWLRR	soluble
MGSDKIHHHHHHMLKIGLLWHSTTSDNLGVGALTEAQISIINKAAVQAGVEVEYRIFGTNGNKDYFEGNPLIERGTNVSLKRILIGASDYPKKIRECDVVFDIGEGDSFADIYGFSRFLIQIVSKLVVLFQRKPLILSPQTIGPFESRFNLKVANNVMQRCTKIFVRDGLSFGYLQKNNLSVNAEEVIDVAFRLPFQRPSRDSSKVKIGLNVSGLLYNGGYTGKNQFGLSVNYPELTRSLLDQFTRIEGCEVWLVPHVLTTSFPIEDDVNVCVQLQELYPAAKLAPSFSSPSQAKSFISGMDFFLGARMHACIAAFSSGVPVVPLAYSRKFNGLFSALDYPYLGDCKVNTNEQIVGLVMDCFNSREQLKFAVEEGNKIAEKKLLRYEQYIAELLTRISNKKIVL	not soluble
